Assay results from patent US20190248888A1, “METHODS OF LOWERING BLOOD GLUCOSE LEVELS” (Regeneron Pharmaceuticals, Inc., priority 2016, published 2019).

Tested on: livers of mice
Assay: RNAseq gene expression in liver of GCGR antibody treated mice
Assay type: in vivo, mouse
Conditions: 21 days
Procedure: All procedures were conducted in compliance with protocols approved by the Institutional Animal Care and Use Committee of Regeneron Pharmaceuticals. The in vitro and in vivo characteristics of REGN1193 (H4H1327P), a potent monoclonal GCGR blocking antibody has been previously described (See U.S. Pat. No. 8,545,847). This antibody was used as the exemplary glucagon signaling pathway antagonist in all studies in this report (See the HVCR/LCVR amino acid sequence pair of SEQ ID NOs: 86/88 in the present application. See also the corresponding heavy chain complementarity determining regions (HCDRs 1-2-3 of SEQ ID NOs: 72-74-76) and the corresponding light chain complementarity determining regions (LCDRs 1-2-3 of SEQ ID NOs: 80-82-84). The GCGR antibody and isotype control antibody were diluted with sterile PBS.
Total RNA was purified from all samples using MagMAX™-96 for Microarrays Total RNA Isolation Kit (Ambion by Life Technologies) according to manufacturer's specifications. Genomic DNA was removed using MagMAX™Turbo™DNase Buffer and TURBO DNase from the MagMAX kit listed above (Ambion by Life Technologies). mRNA was purified from total RNA using Dynabeads® mRNA Purification Kit (Invitrogen). Strand-specific RNA-seq libraries were prepared using ScriptSeq™ mRNA-Seq Library Preparation Kit (Epicentre). Twelve-cycle PCR was performed to amplify libraries. Sequencing was performed on Illumina HiSeq®2000 (Illumina) by multiplexed single-read run with 33 cycles.
Raw sequence data (BCL files) were converted to FASTQ format via Illumina Casava 1.8.2. Reads were decoded based on their barcodes and read quality was evaluated with FastQC (http://www.bioinformatics.babraham.ac.uk/projects/fastqc/). Reads were mapped to the mouse transcriptome (NCBI GRCh37) using CLC Genomics Workbench Version 7.0 (CLCbio) or TopHat2 (Version 2.0.10) allowing two mismatches. Reads mapped to the exons of a gene were summed at the gene level. To identify differentially expressed genes, the statistical significance (p-value) of the differential expressions was assessed with DESeq package (version 1.6 or 2.0).
A key role of glucagon is to promote the uptake and metabolism of amino acids in the liver to provide gluconeogenic precursors. To further explore this pathway, a recently described fully human GCGR-blocking antibody (Okamato et al, 2015, Endocrinol. 156:2781-2794; See also, U.S. Pat. No. 8,545,847) derived using VelocImmune technology (Macdonald et al., 2014, PNAS 111:5147-5152; Murphy et al., 2014, PNAS 111:5153-5158) was used in the experiments provided herein. […] As shown previously (Mu et al., 2012, PLOS ONE 7:349572; Okamoto et al., 2015, Endocrinol. 156:2781-2794; Solloway et al., 2015, Cell Reports 12:495-510), and confirmed later in this study, these findings provide a mechanism for the elevated circulating amino acid levels that are observed in mice and monkeys with impaired GCGR signaling.

[1] = liver of mice, 15 mg/kg α-GCGR vs control antibody

B1: α-GCGR: potent monoclonal GCGR blocking antibody, HCVR/LCVR SEQ ID NOs: 86/88 (antibody, V domains shown)
VH: EVQLVESGGGLVQPGGSLRLSCAASGFTFSNYLMNWVRQAPGKGLEWLANIQEDGIEKYYVDSVKGRFTISRDNAKNSLYLQMNSLRAEDTAVYYCAREPSHYDILTGYDYYYGMDVWGQGTTVTVS
VL: DIQMTQSPSSLSASVGDRVTITCRASQGIRNDLGWYQQKPGKAPKRLIYAASSLQSGVPSRFSGSGSGTEFILTVSSLQPEDFATYYCLQYNSNPFTFGPGTKVDIK
Aass Fold change [1]: −1.85 | Abat Fold change [1]: −1.64 | Acmsd Fold change [1]: −2.70 | Agxt Fold change [1]: −2.17 | Aldh4a1 Fold change [1]: −1.64 | Aldoa Fold change [1]: −1.15 | Arg1 Fold change [1]: −1.56 | Asl Fold change [1]: −1.92 | Ass1 Fold change [1]: −3.23 | Bhmt Fold change [1]: −2.00 | Cbs Fold change [1]: −1.85 | Cps1 Fold change [1]: −1.96 | Cth Fold change [1]: −3.12 | Ddc Fold change [1]: −2.08 | Eno1 Fold change [1]: −1.20 | Fbp1 Fold change [1]: −1.67 | G6pc Fold change [1]: −1.39 | Gcat Fold change [1]: −1.67 | Gldc Fold change [1]: −1.72 | Gnmt Fold change [1]: −2.56 | Got1 Fold change [1]: −8.33 | Gpi1 Fold change [1]: 1.03 | Gpt Fold change [1]: −1.72 | Hgd Fold change [1]: −1.75 | Hpd Fold change [1]: −1.92 | Ivd Fold change [1]: −1.56 | Lap3 Fold change [1]: −1.56 | Mat1a Fold change [1]: −2.04 | Mpst Fold change [1]: −1.61 | Nags Fold change [1]: −1.67 | Oat Fold change [1]: −6.67 | Otc Fold change [1]: −1.12 | Pah Fold change [1]: −1.75 | Pck1 Fold change [1]: −1.82 | Pgam1 Fold change [1]: −1.20 | Pgk1 Fold change [1]: −1.16 | Prodh Fold change [1]: −1.67 | Sardh Fold change [1]: −1.75 | Sds Fold change [1]: −3.23 | Slc1a2 Fold change [1]: −1.25 | Slc3a1 Fold change [1]: −1.72 | Slc3a2 Fold change [1]: −1.08 | Slc6a9 Fold change [1]: 1.45 | Slc7a2 Fold change [1]: −2.27 | Slc15a3 Fold change [1]: −1.12 | Slc15a4 Fold change [1]: −1.15 | Slc16a10 Fold change [1]: −1.28 | Slc17a8 Fold change [1]: 2.32 | Slc25a12 Fold change [1]: 1.27 | Slc25a13 Fold change [1]: −1.27 | Slc25a15 Fold change [1]: −1.92 | Slc25a22 Fold change [1]: −1.56 | Slc36a1 Fold change [1]: −1.41 | Slc36a4 Fold change [1]: −1.18 | Slc38a2 Fold change [1]: −1.08 | Slc38a3 Fold change [1]: −1.75 | Slc38a4 Fold change [1]: −1.56 | Slc38a6 Fold change [1]: −1.09 | Slc38a7 Fold change [1]: 1.05 | Slc38a9 Fold change [1]: 1.17 | Slc38a10 Fold change [1]: −1.04 | Slc43a1 Fold change [1]: −2.78 | Tat Fold change [1]: −4.35 | Tpi1 Fold change [1]: −1.14 | pcx Fold change [1]: −1.15 | Aass expression RPKM (liver of mice, 15 mg/kg α-GCGR): 60.38 RPKM | Abat expression RPKM (liver of mice, 15 mg/kg α-GCGR): 43.18 RPKM | Acmsd expression RPKM (liver of mice, 15 mg/kg α-GCGR): 3.90 RPKM | Agxt expression RPKM (liver of mice, 15 mg/kg α-GCGR): 111.91 RPKM | Aldh4a1 expression RPKM (liver of mice, 15 mg/kg α-GCGR): 64.72 RPKM | Aldoa expression RPKM (liver of mice, 15 mg/kg α-GCGR): 16.24 RPKM | Arg1 expression RPKM (liver of mice, 15 mg/kg α-GCGR): 969.96 RPKM | Asl expression RPKM (liver of mice, 15 mg/kg α-GCGR): 151.51 RPKM | Ass1 expression RPKM (liver of mice, 15 mg/kg α-GCGR): 190.00 RPKM | Bhmt expression RPKM (liver of mice, 15 mg/kg α-GCGR): 98.73 RPKM | Cbs expression RPKM (liver of mice, 15 mg/kg α-GCGR): 126.52 RPKM | Cps1 expression RPKM (liver of mice, 15 mg/kg α-GCGR): 419.74 RPKM | Cth expression RPKM (liver of mice, 15 mg/kg α-GCGR): 139.77 RPKM | Ddc expression RPKM (liver of mice, 15 mg/kg α-GCGR): 15.03 RPKM | Eno1 expression RPKM (liver of mice, 15 mg/kg α-GCGR): 14.96 RPKM | Fbp1 expression RPKM (liver of mice, 15 mg/kg α-GCGR): 365.35 RPKM | G6pc expression RPKM (liver of mice, 15 mg/kg α-GCGR): 40.65 RPKM | Gcat expression RPKM (liver of mice, 15 mg/kg α-GCGR): 18.88 RPKM | Gldc expression RPKM (liver of mice, 15 mg/kg α-GCGR): 33.42 RPKM | Gnmt expression RPKM (liver of mice, 15 mg/kg α-GCGR): 449.55 RPKM | Got1 expression RPKM (liver of mice, 15 mg/kg α-GCGR): 9.98 RPKM | Gpi1 expression RPKM (liver of mice, 15 mg/kg α-GCGR): 16.58 RPKM | Gpt expression RPKM (liver of mice, 15 mg/kg α-GCGR): 103.74 RPKM | Hgd expression RPKM (liver of mice, 15 mg/kg α-GCGR): 109.59 RPKM | Hpd expression RPKM (liver of mice, 15 mg/kg α-GCGR): 874.17 RPKM | Ivd expression RPKM (liver of mice, 15 mg/kg α-GCGR): 51.86 RPKM | Lap3 expression RPKM (liver of mice, 15 mg/kg α-GCGR): 108.58 RPKM | Mat1a expression RPKM (liver of mice, 15 mg/kg α-GCGR): 525.98 RPKM | Mpst expression RPKM (liver of mice, 15 mg/kg α-GCGR): 17.32 RPKM | Nags expression RPKM (liver of mice, 15 mg/kg α-GCGR): 13.94 RPKM | Oat expression RPKM (liver of mice, 15 mg/kg α-GCGR): 66.76 RPKM | Otc expression RPKM (liver of mice, 15 mg/kg α-GCGR): 292.99 RPKM | Pah expression RPKM (liver of mice, 15 mg/kg α-GCGR): 232.16 RPKM | Pck1 expression RPKM (liver of mice, 15 mg/kg α-GCGR): 490.87 RPKM | Pgam1 expression RPKM (liver of mice, 15 mg/kg α-GCGR): 2.12 RPKM | Pgk1 expression RPKM (liver of mice, 15 mg/kg α-GCGR): 1.91 RPKM | Prodh expression RPKM (liver of mice, 15 mg/kg α-GCGR): 89.26 RPKM | Sardh expression RPKM (liver of mice, 15 mg/kg α-GCGR): 122.51 RPKM | Sds expression RPKM (liver of mice, 15 mg/kg α-GCGR): 39.47 RPKM | Slc1a2 expression RPKM (liver of mice, 15 mg/kg α-GCGR): 14.89 RPKM | Slc3a1 expression RPKM (liver of mice, 15 mg/kg α-GCGR): 9.78 RPKM | Slc3a2 expression RPKM (liver of mice, 15 mg/kg α-GCGR): 14.56 RPKM | Slc6a9 expression RPKM (liver of mice, 15 mg/kg α-GCGR): 10.29 RPKM | Slc7a2 expression RPKM (liver of mice, 15 mg/kg α-GCGR): 67.24 RPKM | Slc15a3 expression RPKM (liver of mice, 15 mg/kg α-GCGR): 1.15 RPKM | Slc15a4 expression RPKM (liver of mice, 15 mg/kg α-GCGR): 5.47 RPKM | Slc16a10 expression RPKM (liver of mice, 15 mg/kg α-GCGR): 14.93 RPKM | Slc17a8 expression RPKM (liver of mice, 15 mg/kg α-GCGR): 4.18 RPKM | Slc25a12 expression RPKM (liver of mice, 15 mg/kg α-GCGR): 4.68 RPKM | Slc25a13 expression RPKM (liver of mice, 15 mg/kg α-GCGR): 76.40 RPKM | Slc25a15 expression RPKM (liver of mice, 15 mg/kg α-GCGR): 50.85 RPKM | Slc25a22 expression RPKM (liver of mice, 15 mg/kg α-GCGR): 14.40 RPKM | Slc36a1 expression RPKM (liver of mice, 15 mg/kg α-GCGR): 3.90 RPKM | Slc36a4 expression RPKM (liver of mice, 15 mg/kg α-GCGR): 1.34 RPKM | Slc38a2 expression RPKM (liver of mice, 15 mg/kg α-GCGR): 17.59 RPKM | Slc38a3 expression RPKM (liver of mice, 15 mg/kg α-GCGR): 285.49 RPKM | Slc38a4 expression RPKM (liver of mice, 15 mg/kg α-GCGR): 261.42 RPKM | Slc38a6 expression RPKM (liver of mice, 15 mg/kg α-GCGR): 1.72 RPKM | Slc38a7 expression RPKM (liver of mice, 15 mg/kg α-GCGR): 4.41 RPKM | Slc38a9 expression RPKM (liver of mice, 15 mg/kg α-GCGR): 1.48 RPKM | Slc38a10 expression RPKM (liver of mice, 15 mg/kg α-GCGR): 19.58 RPKM | Slc43a1 expression RPKM (liver of mice, 15 mg/kg α-GCGR): 0.83 RPKM | Tat expression RPKM (liver of mice, 15 mg/kg α-GCGR): 197.67 RPKM | Tpi1 expression RPKM (liver of mice, 15 mg/kg α-GCGR): 46.09 RPKM | pcx expression RPKM (liver of mice, 15 mg/kg α-GCGR): 68.44 RPKM | expression of genes involved in amino acid metabolism, urea cycle and gluconeogenesis (livers of mice, 15 mg/kg): reduced expression | expression of mitochondrial amino acid transporters Slc25a15 and Slc25a22 (livers of mice, 15 mg/kg): significantly reduced | reduction of expression of plasma membrane amino acid transporters Slc38a3, Slc38a4, Slc7a2 and Slc3a1 (livers of mice, 15 mg/kg): 30-50%
